In the DeepSol protein solubility set:

Experiment: soluble on expression in E. coli; label from the status in PepcDB or PDB records

Which “soluble on expression in E. coli” value does the source give for “MSLRPGQVDNDVINLVAMLFEFILDDRHLHSVMKSLLGRLQIPILKVALTDKNFFNRGGHPARKLLNEMALAATGWTEKRPGQRDPLLDKISAVVNRILAEFSTDVSLFNELLDDFNQFSDLDQRRSDLVEQRLRDAEEGRARHEQATADTKELLHEAMDGRLLPEPVQDMLNGPWSHYLHWLALHESTDSEAWQRAKTLTEQLIWTIDPVPLTATTHELLQQAIPQVIEQLRGALEGVAWDGLSVEMVVRDLELVHLDVFQRLVIAPSEAAGNDHAQIDDSQEAPAVRADAVPSDTTNTSADVSHPAPALPVAADDPKEAVVARVPEPTRAQPVVAEEWLAKADGLRVGCWLELNRDGSQIRCKLAAFIRAVDKYIFVNRSGAKVAEYRRNELAEMMAQGHIEILDDGLIFDRALESIIDNLRTSRREGHHHHHH” here?
The value was “soluble”.

Which “soluble on expression in E. coli” value does the source give for “MSLRRLLQVFFFCPKQIYSFKLYQSLIFYNYTDAFFSVKIVSTTNFGGHIMSTTIIGFPRLGEFRELKFTTEKYFRKEISEEELLAAAKDLRAKHWNIVKEKGITEIPSNDFSHYDNFLDAAFLFNVVPASVQNLDLSDLERYFALGRGYQGEKGDVRALPMKKWFNTNYHYIVPKFEKDTQVKLAGHKIFDEFQEAKELGLNTRPVLVGPFTFLQLSDFEEGVKADDFVDSFVAAYQEVFAKLADLGATRIQLDEAALVKDLTAEEKALFLNLYNKLLADKKGLEVLFQTYFGDVRDVYADLVNLPVDAIGLDFVEGKKTLELVKGGFPADKTLYVGIVNGKNIWRNNYEKSLTVLEQIPAENIVLTSSCSLLHVPFTTANEEFEPALLNHFAFAVEKLDEIRDLDAIRNGQGSEALAANKELFATERVGENAELRARIAGLTDADYTRLPAFAEREAIQEEAFKLPALPTTTIGSFPQTKEVRAKRLAYRKGELSQKEYDAFLAETIDEWIKWQEDIDFDVLVHGEFERNDMVEYFGQNLSGYLFSKNGWVQSYGMRGVKPPIIWGDVTRLNPITVKWSSYAQSRTNKPVKGMLTGPVTILNWSFPREDISIKDSTLQIALAIKDEVLDLEAAGVKIIQIDEAALREKLPLRRSDWYEDYLDWAIPAFRLVHSTVAPDTQIHTHMCYSEFTDIIPAIDNMDADVISFEASRSNLEILDELKAKNFQTEVGPGVYDIHSPRVPNEGEIDNTIEAILAKVPSKKVWINPDCGLKTRGIPETKESLIRLVEAAKAAREKLEGHHHHHH” here?
Its value is “soluble”.

For “MSLRTIVFDVDDTLYDQQQPFRNAMTKIFPNVATEDMHELYLRFRHHSDETFPKVLANEWSLDFMRFFRMNETLKDLNYPGISQEEGKIFQQVYEEELDNITMHPEVTKLLDTLQEKEIPMGIITNGPTDHQFKKVKQLNIEKWVPSQNIIISQSTGFQKPEKEIFDLACNQFCMEPEHTLYVGDSYDNDIVGARNGGWHSLWFNHRSRELPSCQPASHLAEVTCFTELCPTVEKLFNLEGHHHHHH”, which “soluble on expression in E. coli” value is on record?
Its value is “soluble”.

Which “soluble on expression in E. coli” value does the source give for “MSLRTTHIPLVAIVLASVCSSLAAPKAGGLELIILHNNDMHARFEQTGAYSNDCQPSDVASNRCYGGFARVAHKVREYRATEASGGLPVLYLNAGDTYTGTPWFSVFKDNITAAFLNILKPDAISLGNHEFDLGVEGLVPFLNEVDFPVLVTNLDLSKTPEMQTSRSLQRSIIFTKAGVRIGVIGYLTPETKQLAPINTVEFLDEIEEINKEATSLKNQGVNILIALGHSGLERDKEIAAQCPDVDLVIGGHSHTFLYSGTAPDVEDPAGPYPVMVKNAAGKEVPVVQAYAYTKYLGYLHLQFDTEGNLIELDGTPLLLNGTVERDSDVLQLLELYRPGILALDAQIGHSNVFLDSSRCRFEECNIGNMIADSLVITYATTREQSNDGFWTDAAIGFIQGGGIRASVNAGPITMKDLKTVLPFGNAMVVTDITGAQLRQMLEQSVHRYDGVSGYGEFLQMAGVNVEYDLSRPPMQRVVHVKVRCARCQVPAYEELQDDGVYRVILSQFLYDGGDGYEMLPGSPRQLLTFGEYEITEEYLKRYSPIYPAIEWRIRMQGQPNVTEGHHHHHH” here?
The value was “soluble”.

Which “soluble on expression in E. coli” value does the source give for “MSLRVAVGMSGGVDSSVTALLLKEQGHDVIRVTLRFHTVEACEVNETHNVCCSPKDVQDASRVAKRLGIPHLVFSWEEIFKSKVIDYFVEEYKRGRTPNPCALCNREVKTGFFARYLKQVADIDKLATGHYAKIEEDKKYGLVIKRPKDRKRDQTYFLSLVRREDLELLTFPLGAYTKEEVREIAKRYGLEVAQKRDSQEVCFLMGKSPGEYLEGILGKQRGLIKHVSGKVLGEHEGVYRYTIGQRRGLGISYGKPVYVIDIDAKTNTLIVGEEEYLYNDKLLVKEINFHVPLEKWENVSAQIRYRHKPVPVERIEKTEEGFLVKFKEDVRGITPGQVVAFYDGDVLLGGGIIEESVKEGHHHHHH” here?
The value was “soluble”.

For “MSLRVEAQNISKTFGEVQALKDLSFVIEKGKALGLLGRNGAGKTTAIRILLGILPSDTGKVLVDNKKLSFDENAFGYLPEERGLYLKYTVKSQLMHFASLYGMKKKEALNSIEYWLEKFEISEYLNKKVETLSKGNKQKIQLIVAVMHDPEVIILDEPFSGLDPVNVELFKTVIRELLAKGKTLIFSSHRMADVEEFCDDIIMLKKGETMLQGNLDKIKEDYGIKGLVVEGEEKVQDFLKELGFEALEFKKGSYRVNLKDLEKGKELLRKITNTDLDIRGFYFERPSLNDIFIERLGEGHHHHHH”, which “soluble on expression in E. coli” value is on record?
The value was “soluble”.

Which “soluble on expression in E. coli” value does the source give for “MSLRVENLRSSTYRNGPTGLPNRARFSEDLDAVLLQRTADSAATAIAVDLCGSDYFRDMVKALGWDYADGYVALAYKRLISKLPAGTALYRLDTTTFAFMVTTADPLRLSALCSKISKGFVAPLEHQGIPHTAVASIGAVLLETSYGAADTLRSLTTSVDVAREHCLTWSLYEREGHHHHHH” here?
Its value is “not soluble”.

Which “soluble on expression in E. coli” value does the source give for “MSLRVQLILHLEIPKEVCRSLEVDNYINNSIEINLKCEKKPTLYIKTHSIGSLKSILDDFFRCQNAAMEVYNLIKTYTIRNVTKDDLDDFLELYFKAYRGFDKYYYKKKKWARWYFKWLMKRDEDGFFVCEVNGKPVGFVACDCNWISNIEKREVAEIHEIFVDPDFRGRGIGTALINKAIEYAKKRGRRIVELWVGVENKGAIEFYKRLGFEEKEVVKGWLRMVKRIEGHHHHHH” here?
Its value is “not soluble”.

With “MSLRVTDFSFELPESLIAHYPMPERSSCRLLSLDGPTGALTHGTFTDLLDKLNPGDLLVFNNTRVIPARLFGRKASGGKIEVLVERMLDDKRILAHIRASKAPKPGAELLLGDDESINATMTARHGALFEVEFNDERSVLDILNSIGHMPLPPYIDRPDEDADRELYQTVYSEKPGAVAAPTAGLHFDEPLLEKLRAKGVEMAFVTLHVGAGTFQPVRVDTIEDHIMHSEYAEVPQDVVDAVLAAKARGNRVIAVGTTSVRSLESAAQAAKNDLIEPFFDDTQIFIYPGFQYKVVDALVTNFHLPESTLIMLVSAFAGYQHTMNAYKAAVEEKYRFFSYGDAMFITYNPQAINERVGEEGGSHHHHHH” as the sequence, how does the “soluble on expression in E. coli” value read?
The value was “soluble”.

For “MSLSAELLTSRDQQNFVVRATRADDVTIDVTSEAKWSVGDEKIVKLQGTTLLPAADGETKLTIEYSGFKSEVPVKVEQAGAERAVSFKQDVMPVFMRSGCNTGSCHGAARGKDGFRLSLFGFDPNGDYDRVTRELAARRINLAVPEASLLMEKAIGSVPHTGGKLFDQDSEYYSTLLRWLETGAQRDASEPPLCEKIEIYPPKAVLEGEGAKQQFIVKGFYADGTTRDITDLAVFLTSNDNSVPVGKDGMAVAANRGEAFVMARFDTHTVGSQVIVLPKDLNYEKPAIEGNYIDKLVGAKLHKLRITPSGLCTDEEYLRRVTIDITGQLPSEEEYAEFMADQSADKRVKLVDRLLERKEFAEIWAMKWAQLLMIKSENNRVSYKSAFLYNSWLQEKIANGVPLDEMVREMLGATGGTFSNPPTNFYEIERDTLKTAENVAQVFMGIRTQCAQCHNHPFDRWTMDDYYSFAAFFAQVGRKNAEDEREGHHHHHH”, which “soluble on expression in E. coli” value is on record?
The value was “not soluble”.

Which “soluble on expression in E. coli” value does the source give for “MSLSAVKIAVILPMTGGISAFGRMVWEGIQIAHEEKPTVLGEEVELVLLDTRSEKTEAANAAARAIDKEKVLAIIGEVASAHSLAIAPIAEENKVPMVTPASTNPLVTQGRKFVSRVCFIDPFQGAAMAVFAYKNLGAKRVVVFTDVEQDYSVGLSNFFINKFTELGGQVKRVFFRSGDQDFSAQLSVAMSFNPDAIYITGYYPEIALISRQARQLGFTGYILAGDGADAPELIEIGGEAVEGLLFTTHYHPKAASNPVAKKFVEVYKEKYGKEPAALNALGYDAYMVLLDAIERAGSFDREKIAEEIRKTRNFNGASGIINIDENGDEGHHHHHH” here?
Its value is “soluble”.

Which “soluble on expression in E. coli” value does the source give for “MSLSDNVDVDVLSLVQNDALEESVAINSMISKARANFSGSLLQFQTRVSSVYGETNEENAVNPLDPEHICKAFSDACIGLDIEIKEKLIVYKQFDRYVMGNLVECLEEANKIMIQAGVMPNLKYTAKKSRVTPRSTSDVSARPLEAQSDANGYDGAGDVFSQVQELLSALRNTASNPEQQQGDPNTGAGGRQAPPPGNVQFIADADLLSILSRLQHSVRTENLAEGPVVALDLRTAVQGLLSEESQKSGKATALDQIDEDLINLVSMLFEFILDDYNLSAPIQVLISRLQIPILKVAIRDKSFFSKPSHPARKLLNALAKAGIGWSDASEKKRDKLYEQIHRAVQRILEEFNGESELFEEIYQEFSQYLSREERKAKLVEQRTKEAEIGRVKSHKAHQVVEQILSEKIAAQPLPPVAVELLRGGWSRVMFLAYLKEDTEHRLNQCTKVVDELTWCLQPHAEVEARQRWVKVVPQLLKNLKAGLKEVSYNSAKLEHMLGELKKALTETFKQQSITSEGHHHHHH” here?
Its value is “not soluble”.

Which “soluble on expression in E. coli” value does the source give for “MSLSDPHHPHIQTHNAWVEFPIFDAKSRSLKKAVLGKAGGTIGRNNSNVVVIEALRDITMELNLGDRVGLVGHNGAGKSTLLRLLSGIYEPTRGWAKVTGRVAPVFDLGIGMDPEISGYENIIIRGLFLGQTRKQMQAKVDEIAEFTELGEYLSMPLRTYSTGMRVRLAMGVVTSIDPEILLLDEGIGAVDADFLRKAQSRLQNLVERSGILVFASHSNEFLARLCKTAIWIDHGVIRLAGGIEEVVRAYEGEDAARHVREVLAETEGHHHHHH” here?
Its value is “soluble”.

Which “soluble on expression in E. coli” value does the source give for “MSLSDPVKVFLADNLRRYDAAVLVMSLPGFYRISADLMIEKNHDVPVVVVDDAGRFAVAASAGHAGGSDELAAYIAGIIDGQAVITDGIESGGRVSVEKIARSLLATIANPECIIPVNAAIANGEHVPVIFRSKKRSMLRRLFAESSDEKHGYAIVLADEPGEDANTCYLIPDDISIGIGFNSSADAELISACLERFLEEAGLAWEDIDYVSSIKDLPDVSIIRKGTRFVKFDPADIRDIDPEMLTHVSDKARDVFGVPGVAEPCAIRSLGPGSKIFLPFRSCGRSVTLAAARREGHHHHHH” here?
Its value is “soluble”.

Which “soluble on expression in E. coli” value does the source give for “MSLSEKPCERVVLDTSVFTNPSVAAVFGDNATSALAQFVILARQVSPRMEFYMPPSVLGELHHFTDAEHLPGDLELVIKLRAPRRHDISVPGMFLYELIEDIRQRIDRGLRVAEKAVREVQPTSVDRTIRWLRDRYRDALRTGLLDSSEDLDVILLAVELDGAVASADRGLLQWAEKGGLRLIPPQRLRSILEHLIENGTAGEEGHHHHHH” here?
Its value is “soluble”.

Which “soluble on expression in E. coli” value does the source give for “MSLSELIFYTNPMSRGRIARWMLEEVGIPYKTEILGFETSMKSPAYRLINPMAKVPAIKHGDTIVTEAAAICAYLADAFPGANLAPTPKARGLYYRWMFFAAGPLEMAASMKAMGFEVPKEKLRMAGCGSYADVMNTLERAVSENRFIAGDLFTAADVYVGAHVGWGLHFGTIEKRPAFTDYMAHLTDRPAFKRAAQLDEEAAKELQAAGEGHHHHHH” here?
Its value is “soluble”.

Which “soluble on expression in E. coli” value does the source give for “MSLSFDVVFVGHRRGEVRSDNAMLGLLCDAAFDELTRPDVVIFPGGIGTRTLIHDQTVLDWVREAHRHTLLTTSVCTGGLVLAAAGLLNGLTATTHWRVQDLFNSLGARYVPQRVVEHLPERVITAAGVSSGIDMGLRLVELLVSREAAEASQLMIEYDPQPPVDAGSLAKASPATHRLALEFYQHREGHHHHHH” here?
Its value is “not soluble”.

With “MSLSFTSTIKVVIADDHAILREGLKQILAETEDIEVVADAKNAAEAIKLAGTKGLDVVVLDISLPDRSGIEACNIIKKEHPGVAVLMLSMHREDAYAIRALRAGAVGYLSKQSASDQLVTAIRTVAKGKKYISAEVALALADQVSGGLEKPIHDTLSNREFQTLTMIASGLSVSEIAENLSLSVKTVSMYRARLLEKLNLRHNAELTHYAIKNNLIDEGHHHHHH” as the sequence, how does the “soluble on expression in E. coli” value read?
The value was “soluble”.
